Target: T1, SARS-CoV-2 wildtype (WT) spike extracellular domain trimer (proline substitutions 2P or 6P, mutated furin … (SARS-CoV-2, UniProt P0DTC2))
T1 construct: also called WT spike trimer
Details: both partners purified

Row | Binder | Kd [nM]
1 | JMB2002 IgG (antibody, V domains shown, copies: 2 + 2) VH: QVQLVQSGAEVKKPGSSVKVSCKASGGTFSSYAISWVRQAPGQGLEWMGRIIPIFGTANYAQKFQGRVTITADESTSTAYMELSSLRSEDTAVYYCASLASYSSGWEDVFDIWGQGTMVTVSS VL: DIQMTQSPSSLSASVGDRVTITCRASQGISSWLAWYQQKPGKAPKLLIYDASNLETGVPSRFSGSGSGTDFTFTISSLQPEDIATYYCQQYDNLPLTFGGGTKVEIK | 0.5 ± 0.3
2 | JMB2002 Fab (Fab, V domains shown, also called Fab from JMB2002) VH: QVQLVQSGAEVKKPGSSVKVSCKASGGTFSSYAISWVRQAPGQGLEWMGRIIPIFGTANYAQKFQGRVTITADESTSTAYMELSSLRSEDTAVYYCASLASYSSGWEDVFDIWGQGTMVTVSS VL: DIQMTQSPSSLSASVGDRVTITCRASQGISSWLAWYQQKPGKAPKLLIYDASNLETGVPSRFSGSGSGTDFTFTISSLQPEDIATYYCQQYDNLPLTFGGGTKVEIK | 12.2 ± 11.6

From article PMC8939775, “Structures of the Omicron Spike trimer with ACE2 and an anti-Omicron antibody” (Science (New York, N.y.), 2022)
